# Laboratory results from patent US8530621B2, “Combined preparation of a thiazide diuretic and a loop diuretic” (The Regents of the University of California, priority 2007, dated 2013).
# Residue numbers refer to the chain shown, from its start. Numbers in names are those of the source.
# B1: L325R: HA-tagged mouse talin F23 (residues 206-405) mutant L325R expressed by transfection (protein, UniProt P26039 206-405, looked up, variant L325R)
# chain: SRDPVQLNLLYVQARDDILNGSHPVSFDKACEFAGFQCQIQFGPHNEQKHKAGFLDLKDFLPKEYVKQKGERKIFQAHKNCGQMSEIEAKVRYVKLARSLKTYGVSFFLVKEKMKGKNKRVPRLLGITKECVMRVDEKTKEVIQEWSLTNIKRWAASPKSFTLDFGDYQDGYYSVQTTEGEQIAQLIAGYIDIILKKKKS
# modifications: F2-F3 subdomains HA tag
# notes: HA-tagged mouse talin F23 (residues 206-405) mutant L325R expressed by transfection
# B2: S365D: HA-tagged mouse talin F23 (residues 206-405) mutant S365D expressed by transfection (protein, UniProt P26039 206-405, looked up, variant S365D)
# chain: B1 chain with R120L, S160D
# modifications: F2-F3 subdomains HA tag
# notes: HA-tagged mouse talin F23 (residues 206-405) mutant S365D expressed by transfection
# B3: S379R: HA-tagged mouse talin F23 (residues 206-405) mutant S379R expressed by transfection (protein, UniProt P26039 206-405, looked up, variant S379R)
# chain: B1 chain with R120L, S174R
# modifications: F2-F3 subdomains HA tag
# notes: HA-tagged mouse talin F23 (residues 206-405) mutant S379R expressed by transfection
# B4: Q381V: HA-tagged mouse talin F23 (residues 206-405) mutant Q381V expressed by transfection (protein, UniProt P26039 206-405, looked up, variant Q381V)
# chain: B1 chain with R120L, Q176V
# modifications: F2-F3 subdomains HA tag
# notes: HA-tagged mouse talin F23 (residues 206-405) mutant Q381V expressed by transfection
# B5: wild type F23: F2 and F3 sub-domains (F23) of talin, residues 206-405, wild type (protein, UniProt P26039 206-405, looked up, fragment)
# chain: B1 chain with R120L
# modifications: F2-F3 subdomains
# notes: F2 and F3 sub-domains (F23) of talin, residues 206-405, wild type
# B6: F23(W359A): talin F23 mutant W359A that strongly inhibits the MD binding site (protein)
# chain: B1 chain with R120L, W154A
# modifications: left off: small tags and cut ends
# B7: DOK1: PTB-containing protein, full-length DOK1, transfected into αβPy cells (protein)
# chain: MDGAVMEGPLFLQSQRFGTKRWRKTWAVLYPASPHGVARLEFFDHKGSSSGGGRGSSRRLDCKVIRLAECVSVAPVTVETPPEPGATAFRLDTAQRSHLLAADAPSSAAWVQTLCRNAFPKGSWTLAPTDNPPKLSALEMLENSLYSPTWEGSQFWVTVQRTEAAERCGLHGSYVLRVEAERLTLLTVGAQSQILEPLLSWPYTLLRRYGRDKVMFSFEAGRRCPSGPGTFTFQTAQGNDIFQAVETAIHRQKAQGKAGQGHDVLRADSHEGEVAEGKLPSPPGPQELLDSPPALYAEPLDSLRIAPCPSQDSLYSDPLDSTSAQAGEGVQRKKPLYWDLYEHAQQQLLKAKLTDPKEDPIYDEPEGLAPVPPQGLYDLPREPKDAWWCQARVKEEGYELPYNPATDDYAVPPPRSTKPLLAPKPQGPAFPEPGTATGSGIKSHNSALYSQVQKSGASGSWDCGLSRVGTDKTGVKSEGST
# Molecular target: T1, integrin αIIbβ3 (Homo sapiens, UniProt P05106+P08514)
# T1 construct: expressed in transfected cells; host or cells: CHO (A5 cells)
# Assay: PAC1 binding by flow cytometry in A5 cells transfected with talin F23
# Format: cell-based
# Conditions: CHO cells stably expressing WT human αIIbβ3 (A5 cells), transient transfection with HA-talin F23
# Excerpt: (§1) A-B. CHO cells were transiently transfected with plasmids encoding αIIb and β3, or mutants thereof. In some samples (indicated above) a plasmid encoding a shRNA for talin-1 (Tadokoro et. al. 2003) or a control shRNA was co-transfected with the integrin plasmids. Cells were double stained for integrin αIIbβ3 expression (B-D57) and activated αIIbβ3 (PAC1) and flow cytometry was used to measure the geometric mean fluorescence intensity (F) of PAC1 binding. Non-specific PAC1 binding (F0) was measured in the presence of a competitive antagonist of αIIbβ3, Ro43-5054 and maximal binding (Fmax) was measured in the presence of the activating antibody Anti-LIBS6. Activation index was defined as 100*(F−F0)/(Fmax−F0) (see Experimental Procedures). A. Activation of αIIb(R995A)β3 integrin was diminished in the cells co-transfected with talin-1 knockdown shRNA. Similarly, the β3(Y747A) mutation blocks talin binding to the MD site and the αIIb(R995A)β3(Y747A) integrin is not activated. B. Talin-mediated activation requires specific contacts between talin F3 and the β3 MP region. Depicted is the Activation Index (gray bars) or the αIIbβ3 expression, indicated as fluorescence intensity of D57 staining (black bars). The activating effect of αIIb(R995A) is diminished when it is paired with the β3 MP mutants β3(F727A) or β3(F730A). C-D. CHO cells stably expressing WT human αIIbβ3 (A5 cells), or a high-affinity chimeric integrin (αβPy cells), were transiently co-transfected with vectors for WT or mutant HA-tagged talin F23 and eGFP protein as a transfection marker. PAC1 binding was measured by flow cytometry in the subset of cells expressing GFP. Insets show representative western blots of cell lysates probed with anti-HA antibody and indicate that WT and mutant HA-talin F23 expressed to similar levels. C. Specific PAC1 binding in αIIbβ3-expressing A5 cells transfected with talin F23 mutants relative to that in cells transfected with wild type talinF23 (set as 100). […] D. PAC1 binding in αIIbα6β3β1-expressing αβPy cells transfected with talin F23 or its mutants relative to that in cells transfected with empty vector (set as 100). The MP-contacting talin F23 mutants (L325R, S365D, S379R, Q381V) inhibited activation, whereas the MD-contacting mutant talin F23(W359A) had no significant effect on activation levels. All data are an average of three of more measurements, error bars are standard deviations.
# Contacts between talin and the MP region of the β3 cytoplasmic tail may constitute an interaction that is a key to the activation process. To test this concept, the effects of a number of designed mutations, both in the β3 tail and in the talin F3 sub-domain, were investigated. Integrin activation was assessed using the antibody PAC1 and flow cytometry as previously described (Partridge et al., 2005).
# For experiments to assess the functional effect of point mutants in the β3 tail, CHO cells were co-transfected with pCDM8 plasmids coding for wildtype or mutant sequences of […] and β3. Transfection was done using the plus reagent and lipofectamine (Life Technologies); 24 hours later cells were stained with B-D57 and PAC1 in the presence and absence of Ro43-5054 or Anti-LIBS6. The biotinylated monoclonal antibody, B-D57 was used to detect expression of αIIbβ3, while PAC1, an activation specific, monoclonal IgM antibody was used to assess the activation state of the αIIbβ3 integrin. This antibody is an authentic ligand for integrin αIIbβ3 (Abrams et al., 1994) and its binding correlates with the binding of natural ligands, such as fibrinogen (Shattil et al., 1985). Cells were analyzed on a FACScan using both B-D57 and PAC1 antibodies as described previously (Partridge et al., 2005). The geometric mean fluorescence intensity (MFI) of PAC1 staining in the presence of Ro43-5054 (2 μM) was used to estimate non-specific PAC1 binding (F0). […]
row,Molecule,integrin αIIbβ3 activation (PAC1 binding)
1,B1,diminished the ability of F23 to activate integrin αIIbβ3
2,B2,diminished the ability of F23 to activate integrin αIIbβ3
3,B3,diminished the ability of F23 to activate integrin αIIbβ3
4,B4,diminished the ability of F23 to activate integrin αIIbβ3
5,B5,activated the integrin
6,B6,prevent activation

# Tested on: αIIbα6β3β1 high-affinity chimeric integrin (αβPy cells)
# Assay: PAC1 binding by flow cytometry in αβPy cells transfected with talin F23 or DOK1
# Format: cell-based
# Conditions: talin-dependent constitutively active chimeric integrin, transient transfection
# Excerpt: as §1
# A. CHO cells stably expressing a high-affinity chimeric integrin (αβPy cells) were transiently co-transfected with empty vector (pCDNA3.1), WT talin F23 or full-length DOK1; eGFP protein was used as a transfection marker. The level of integrin activation was measured by flow cytometry of harvested cells using PAC1 antibody as described in the legend to FIG. 3. Data are an average of three or more measurements; error bars are standard deviations. B. Overlay of the DOK and talin PTB domains. The critical differences between the two domains are the residues between strands S1 and S2. C. Weighted shift map (see Experimental Procedures) obtained by observing ^1H-^15N HSQC spectra on addition of the β3/PIPKIα peptide to the DOK PTB domain (10:1 molar ratio). Grey columns indicate residues whose peaks experienced severe line broadening in the bound state and could not be assigned.
# To investigate this possibility we used αβPy cells, a CHO cell-line expressing a talin-dependent constitutively active chimeric integrin composed of the extracellular and transmembrane domains of αIIbβ3 and the cytoplasmic tails of α6β1 (Baker et al., 1997). We transiently transfected αβPy cells with cDNAs encoding the mutant F23 constructs (L325R, S365D, S379R, or Q381V).
# For experiments to assess the functional effect of point mutants in the β3 tail, CHO cells were co-transfected with pCDM8 plasmids coding for wildtype or mutant sequences of βIIb and β3. […]
row,Molecule,integrin activation (PAC1 binding)
1,B1,blocked integrin activation
2,B2,blocked integrin activation
3,B3,blocked integrin activation
4,B4,blocked integrin activation
5,B5,modestly increased activation
6,B6,had no effect on activation
7,B7,inhibited integrin activation
